The supplement of paper PMC9112550, “Optimization of the antimicrobial peptide Bac7 by deep mutational scanning” (BMC Biology, 2022)

Test system: Escherichia coli TOP10
Test: shrunken log2 fold change of peptide-encoding DNA abundance (4.5 h post-induction vs induction); higher = less antimicrobial activity (less host growth inhibition)
Settings: time post-induction: 4.5 h; library: site-saturation at positions 5, 18, 19, 20
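Note: peptides expressed intracellularly from a pBAD plasmid library in pooled LB shake-flask culture, induced with 0.3% L-arabinose, DNA abundance read by NGS, three biological replicates, DESeq2 with apeglm shrinkage.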

Sequence	shrunken log2 fold change
RRIRHRPPRLPRPRPRPDFWPRP	0.372
RRIRHRPPRLPRPRPRPDGMPRP	-0.444
RRIRHRPPRLPRPRPRPDHFPRP	-0.169
RRIRHRPPRLPRPRPRPDHKPRP	-0.274
RRIRHRPPRLPRPRPRPDKLPRP	-0.0246
RRIRHRPPRLPRPRPRPDKNPRP	-0.496
RRIRHRPPRLPRPRPRPDKPPRP	-0.0375
RRIRHRPPRLPRPRPRPDLYPRP	-0.243
RRIRHRPPRLPRPRPRPDMLPRP	-0.481
RRIRHRPPRLPRPRPRPDPCPRP	-0.186
RRIRHRPPRLPRPRPRPDPHPRP	0.000754
RRIRHRPPRLPRPRPRPDPQPRP	0.108
RRIRHRPPRLPRPRPRPDQKPRP	0.0292
RRIRHRPPRLPRPRPRPDQVPRP	-0.0632
RRIRHRPPRLPRPRPRPDRNPRP	-0.0482
RRIRHRPPRLPRPRPRPDRTPRP	0.0869
RRIRHRPPRLPRPRPRPDSHPRP	-0.0191
RRIRHRPPRLPRPRPRPDSRPRP	-0.00136
RRIRHRPPRLPRPRPRPDTQPRP	0.047
RRIRHRPPRLPRPRPRPDTWPRP	-1.13
RRIRHRPPRLPRPRPRPDWFPRP	-0.00508
RRIRHRPPRLPRPRPRPDYFPRP	0.0294
RRIRHRPPRLPRPRPRPDYSPRP	-0.657
RRIRHRPPRLPRPRPRPEASPRP	0.0128
RRIRHRPPRLPRPRPRPECQPRP	-0.0633

Sequence	shrunken log2 fold change
RRIRHRPPRLPRPRPRPECVPRP	0.321
RRIRHRPPRLPRPRPRPEFHPRP	-0.0718
RRIRHRPPRLPRPRPRPEFKPRP	0.0348
RRIRHRPPRLPRPRPRPEFMPRP	0.0682
RRIRHRPPRLPRPRPRPEFPPRP	0.0962
RRIRHRPPRLPRPRPRPEFVPRP	0.02
RRIRHRPPRLPRPRPRPEGIPRP	0.0992
RRIRHRPPRLPRPRPRPEGWPRP	0.695
RRIRHRPPRLPRPRPRPEHAPRP	-0.0423
RRIRHRPPRLPRPRPRPEIAPRP	-0.0585
RRIRHRPPRLPRPRPRPEIWPRP	-0.0396
RRIRHRPPRLPRPRPRPEKNPRP	-0.0893
RRIRHRPPRLPRPRPRPEMNPRP	-0.0935
RRIRHRPPRLPRPRPRPEPWPRP	0.171
RRIRHRPPRLPRPRPRPEPYPRP	0.0514
RRIRHRPPRLPRPRPRPEQPPRP	-0.0288
RRIRHRPPRLPRPRPRPEQYPRP	-0.224
RRIRHRPPRLPRPRPRPEWQPRP	0.145
RRIRHRPPRLPRPRPRPEYAPRP	0.0953
RRIRHRPPRLPRPRPRPEYTPRP	-0.0512
RRIRHRPPRLPRPRPRPFAEPRP	-0.0659
RRIRHRPPRLPRPRPRPFDLPRP	-0.211
RRIRHRPPRLPRPRPRPFEAPRP	-0.214
RRIRHRPPRLPRPRPRPFEFPRP	-0.0195
RRIRHRPPRLPRPRPRPFEYPRP	-0.219

Sequence	shrunken log2 fold change
RRIRHRPPRLPRPRPRPFFAPRP	0.0898
RRIRHRPPRLPRPRPRPFFIPRP	-0.393
RRIRHRPPRLPRPRPRPFGEPRP	-0.0377
RRIRHRPPRLPRPRPRPFGFPRP	-0.0586
RRIRHRPPRLPRPRPRPFGIPRP	-0.0887
RRIRHRPPRLPRPRPRPFGWPRP	0.0661
RRIRHRPPRLPRPRPRPFNAPRP	-0.495
RRIRHRPPRLPRPRPRPFPWPRP	-0.0989
RRIRHRPPRLPRPRPRPFRNPRP	-0.221
RRIRHRPPRLPRPRPRPFRVPRP	-0.371
RRIRHRPPRLPRPRPRPFSHPRP	-0.254
RRIRHRPPRLPRPRPRPFVKPRP	-1.48
RRIRHRPPRLPRPRPRPFVYPRP	-0.186
RRIRHRPPRLPRPRPRPFWAPRP	0.245
RRIRHRPPRLPRPRPRPFYCPRP	-0.946
RRIRHRPPRLPRPRPRPFYPPRP	-0.623
RRIRHRPPRLPRPRPRPFYVPRP	2.94
RRIRHRPPRLPRPRPRPGCIPRP	-1.21
RRIRHRPPRLPRPRPRPGCNPRP	-0.175
RRIRHRPPRLPRPRPRPGDLPRP	0.163
RRIRHRPPRLPRPRPRPGEEPRP	0.03
RRIRHRPPRLPRPRPRPGEMPRP	0.257
RRIRHRPPRLPRPRPRPGFDPRP	0.105
RRIRHRPPRLPRPRPRPGFSPRP	-0.236
RRIRHRPPRLPRPRPRPGGNPRP	0.00148

Sequence	shrunken log2 fold change
RRIRHRPPRLPRPRPRPGHKPRP	0.0956
RRIRHRPPRLPRPRPRPGISPRP	-0.315
RRIRHRPPRLPRPRPRPGKIPRP	-0.769
RRIRHRPPRLPRPRPRPGKKPRP	-0.0335
RRIRHRPPRLPRPRPRPGMAPRP	0.0763
RRIRHRPPRLPRPRPRPGNDPRP	-0.583
RRIRHRPPRLPRPRPRPGNYPRP	0.113
RRIRHRPPRLPRPRPRPGPHPRP	-0.14
RRIRHRPPRLPRPRPRPGPWPRP	0.166
RRIRHRPPRLPRPRPRPGQGPRP	-0.104
RRIRHRPPRLPRPRPRPGSCPRP	-0.108
RRIRHRPPRLPRPRPRPGSQPRP	0.0187
RRIRHRPPRLPRPRPRPGVFPRP	0.0667
RRIRHRPPRLPRPRPRPGWLPRP	0.0986
RRIRHRPPRLPRPRPRPGWRPRP	0.232
RRIRHRPPRLPRPRPRPGYEPRP	-0.454
RRIRHRPPRLPRPRPRPHCCPRP	-0.156
RRIRHRPPRLPRPRPRPHCVPRP	-0.01
RRIRHRPPRLPRPRPRPHDLPRP	0.0509
RRIRHRPPRLPRPRPRPHDMPRP	-0.291
RRIRHRPPRLPRPRPRPHEQPRP	-0.0118
RRIRHRPPRLPRPRPRPHEYPRP	-0.293
RRIRHRPPRLPRPRPRPHFIPRP	-0.499
RRIRHRPPRLPRPRPRPHFNPRP	-0.42
RRIRHRPPRLPRPRPRPHGKPRP	-0.038

Sequence	shrunken log2 fold change
RRIRHRPPRLPRPRPRPHGQPRP	0.0111
RRIRHRPPRLPRPRPRPHGVPRP	0.00355
RRIRHRPPRLPRPRPRPHHCPRP	-0.152
RRIRHRPPRLPRPRPRPHHFPRP	-0.0916
RRIRHRPPRLPRPRPRPHHWPRP	-0.156
RRIRHRPPRLPRPRPRPHICPRP	-0.259
RRIRHRPPRLPRPRPRPHMDPRP	-0.162
RRIRHRPPRLPRPRPRPHNFPRP	-0.0184
RRIRHRPPRLPRPRPRPHPGPRP	-0.0998
RRIRHRPPRLPRPRPRPHPTPRP	-0.0838
RRIRHRPPRLPRPRPRPHRKPRP	-0.351
RRIRHRPPRLPRPRPRPHRWPRP	0.0507
RRIRHRPPRLPRPRPRPHSGPRP	-0.487
RRIRHRPPRLPRPRPRPHSQPRP	-0.224
RRIRHRPPRLPRPRPRPHTAPRP	-0.337
RRIRHRPPRLPRPRPRPHVHPRP	-0.201
RRIRHRPPRLPRPRPRPHVMPRP	-0.185
RRIRHRPPRLPRPRPRPHWGPRP	-0.123
RRIRHRPPRLPRPRPRPHYCPRP	-0.0453
RRIRHRPPRLPRPRPRPHYIPRP	-0.35
RRIRHRPPRLPRPRPRPIAVPRP	-0.219
RRIRHRPPRLPRPRPRPIAWPRP	0.0843
RRIRHRPPRLPRPRPRPIDQPRP	0.0834
RRIRHRPPRLPRPRPRPIEEPRP	-0.127
RRIRHRPPRLPRPRPRPIGPPRP	-0.00697

Sequence	shrunken log2 fold change
RRIRHRPPRLPRPRPRPIGVPRP	0.148
RRIRHRPPRLPRPRPRPIIMPRP	-0.029
RRIRHRPPRLPRPRPRPIKIPRP	-0.62
RRIRHRPPRLPRPRPRPIKTPRP	-0.00476
RRIRHRPPRLPRPRPRPILYPRP	-0.123
RRIRHRPPRLPRPRPRPINIPRP	-1.01
RRIRHRPPRLPRPRPRPIRAPRP	0.0218
RRIRHRPPRLPRPRPRPIRLPRP	-0.0644
RRIRHRPPRLPRPRPRPITMPRP	-0.18
RRIRHRPPRLPRPRPRPIVFPRP	-0.103
RRIRHRPPRLPRPRPRPIVQPRP	-0.115
RRIRHRPPRLPRPRPRPIYYPRP	-0.32
RRIRHRPPRLPRPRPRPKAEPRP	0.0672
RRIRHRPPRLPRPRPRPKAPPRP	0.0258
RRIRHRPPRLPRPRPRPKASPRP	-0.0128
RRIRHRPPRLPRPRPRPKCAPRP	-0.0408
RRIRHRPPRLPRPRPRPKCGPRP	0.0031
RRIRHRPPRLPRPRPRPKCMPRP	-0.29
RRIRHRPPRLPRPRPRPKCRPRP	-0.163
RRIRHRPPRLPRPRPRPKDKPRP	-0.23
RRIRHRPPRLPRPRPRPKELPRP	-0.00676
RRIRHRPPRLPRPRPRPKFWPRP	0.00227
RRIRHRPPRLPRPRPRPKGPPRP	0.216
RRIRHRPPRLPRPRPRPKGWPRP	0.103
RRIRHRPPRLPRPRPRPKHKPRP	-0.297
